Source: US20160264649A1

Columns and labels:
Test in all cases: cell-based or functional assay
[1] = target: HIV-1 JR-CSF Env (wild-type) (HIV-1) (UniProt P20871)
[2] = target: HIV-1 ADA Env (HIV-1)
[3] = target: HIV-1 Env of isolate MGRM-D-011 (subtype D) (HIV-1)
[4] = target: HIV-1 Env of pseudovirus isolate MGRM-G-028 (subtype G) (HIV-1)
[5] = target: HIV-1 Env of isolate 98CN009 (subtype CRF07_BC) (HIV-1)
[6] = target: HIV-1 Env of isolate MG RM-C-025 (subtype C) (HIV-1)
[7] = target: HIV-1 Env of isolate MGRM-D-005 (subtype D) (HIV-1)
[8] = target: HIV-1 Env of isolate MGRM-Chronic-B-024 (subtype B) (HIV-1)
[9] = target: HIV-1 Env of pseudovirus isolate MGRM-G-017 (subtype G) (HIV-1)
[10] = target: HIV-1 Env of pseudovirus isolate MGRM-G-009 (subtype G) (HIV-1)
[11] = target: HIV-1 92RW008 Env (HIV-1)
[12] = target: HIV-1 Env of isolate 92WR026 (subtype A) (HIV-1)
[13] = target: HIV-1 Env of isolate APV_6 (subtype B) (HIV-1)
[14] = target: HIV-1 Env of isolate MG RM-C-026 (subtype C) (HIV-1)
[15] = target: HIV-1 Env of isolate THR0.18 (subtype B) (HIV-1)
[16] = target: HIV-1 Env of isolate VLGCB3 (subtype B) (HIV-1)
[17] = target: HIV-1 Env of isolate 92UG046 (subtype D) (HIV-1)
[18] = target: HIV-1 Env of pseudovirus isolate MGRM-G-019 (subtype G) (HIV-1)
[19] = target: HIV-1 Env of isolate MGRM-F1-020 (subtype F) (HIV-1)
[20] = target: HIV-1 Env of pseudovirus isolate MGRM-G-006 (subtype G) (HIV-1)
[21] = target: HIV-1 Env of isolate MGRM-AE-008 (subtype AE) (HIV-1)
[22] = target: HIV-1 Env of isolate 92 BR 020 (subtype B) (HIV-1)
[23] = target: HIV-1 Env of isolate SF162 (subtype B) (HIV-1) (UniProt P19550)
[24] = target: HIV-1 Env of isolate NL43 (subtype B) (HIV-1)
[25] = target: HIV-1 Env of pseudovirus isolate MGRM-G-004 (subtype G) (HIV-1)
[26] = target: HIV-1 Env of isolate 98CN006 (subtype CRF08_BC) (HIV-1)
[27] = target: HIV-1 Env of isolate JRFL (subtype B) (HIV-1)
[28] = target: HIV-1 Env of isolate MGRM-Chronic-B-003 (subtype B) (HIV-1)
[29] = target: HIV-1 Env of isolate MGRM-F1-021 (subtype F) (HIV-1)
[30] = target: HIV-1 Env of isolate MGRM-F1-014 (subtype F) (HIV-1)
[31] = target: envelope of aMLV pseudovirus (negative control)
[32] = target: HIV-1 Env of isolate 92UG037 (subtype A) (HIV-1)
[33] = target: HIV-1 Env of isolate MGRM-F1-022 (subtype F) (HIV-1)
[34] = target: HIV-1 Env of isolate CMU02 (subtype AE) (HIV-1)
[35] = target: HIV-1 Env of isolate 92UG001 (subtype D) (HIV-1)
[36] = target: HIV-1 Env of isolate MGRM-Chronic-B-020 (subtype B) (HIV-1)
[37] = target: HIV-1 Env of isolate 92UG005 (subtype D) (HIV-1)
[38] = target: HIV-1 Env of isolate MGRM-D-001 (subtype D) (HIV-1)
[39] = target: HIV-1 Env of isolate MGRM-D-022 (subtype D) (HIV-1)
[40] = target: HIV-1 Env of isolate MGRM-Chronic-B-001 (subtype B) (HIV-1)
[41] = target: HIV-1 Env of isolate MGRM-F1-015 (subtype F) (HIV-1)
[42] = target: HIV-1 Env of isolate MGRM-F1-017 (subtype F) (HIV-1)
[43] = target: HIV-1 Env of isolate MG RM-C-020 (subtype C) (HIV-1)
[44] = target: HIV-1 Env of pseudovirus isolate MGRM-G-025 (subtype G) (HIV-1)
[45] = target: HIV-1 Env of isolate MGRM-D-021 (subtype D) (HIV-1)
[46] = target: HIV-1 Env of pseudovirus isolate MGRM-G-013 (subtype G) (HIV-1)
[47] = target: HIV-1 Env of isolate APV_13 (subtype B) (HIV-1)

Sequence of 1443_C16 (PG16) (TCN-116) (antibody) (VH): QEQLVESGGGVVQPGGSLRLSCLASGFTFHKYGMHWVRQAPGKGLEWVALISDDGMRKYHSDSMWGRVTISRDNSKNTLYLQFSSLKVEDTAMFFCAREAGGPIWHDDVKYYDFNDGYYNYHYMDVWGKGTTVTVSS
Sequence of 1443_C16 (PG16) (TCN-116) (antibody) (VL): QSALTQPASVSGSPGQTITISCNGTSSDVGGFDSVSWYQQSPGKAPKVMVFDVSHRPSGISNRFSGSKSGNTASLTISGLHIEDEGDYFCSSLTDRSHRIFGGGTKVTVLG

For 1443_C16 (PG16) (TCN-116) (antibody), the IC50, TZM-bl pseudovirus neutralization [1] was 0.001 µg/mL and the IC50, TZM-bl pseudovirus neutralization [2] was 0.004 µg/mL.

1496_C09 (PG9) (TCN-109) (antibody) showed an IC50 (pseudovirus neutralization) [3] of 0.071 µg/mL, an IC50 [4] of 0.891 µg/mL and an IC50, TZM-bl pseudovirus neutralization [1] of 0.006 µg/mL. It also gave an IC50 (neutralization) [5] of 0.371 µg/mL, an IC50 (µg/mL), pseudovirus neutralization [6] of 0.148 µg/mL and an IC50 (pseudovirus neutralization) [7] of 1.8 µg/mL. The IC50 [8] was 0.222 µg/mL, the IC50 [9] was 0.104 µg/mL and the IC50 [10] was 10.7 µg/mL. The IC50, TZM-bl pseudovirus neutralization [2] was 0.2 µg/mL, the IC50 [11] was 0.006 µg/mL and the IC50 (pseudovirus neutralization) [12] was 0.164 µg/mL. The IC50 [13] was 0.181 µg/mL, the IC50 (µg/mL), pseudovirus neutralization [14] was 0.06 µg/mL and the IC50 (µg/mL), pseudovirus neutralization [15] was 26.4 µg/mL. The IC50 (µg/mL), pseudovirus neutralization [16] was 0.022 µg/mL, the IC50 (neutralization) [17] was 1.86 µg/mL and the IC50 [18] was 14.6 µg/mL. For the same substance, the IC50 (pseudovirus neutralization) [19] was 6.4 µg/mL, the IC50 [20] was 1.98 µg/mL and the IC50 (pseudovirus neutralization) [21] was 31.5 µg/mL.

With PGV04 (antibody) the IC50 [22] was 0.25 µg/mL, the IC50 (pseudovirus neutralization) [3] was 0.025 µg/mL and the IC50 [4] was 0.352 µg/mL. The IC50 (neutralization) [5] was 0.0125 µg/mL, the IC50 (µg/mL), pseudovirus neutralization [6] was > 50 µg/mL and the IC50 (µg/mL), pseudovirus neutralization [23] was 0.028 µg/mL. The IC50 (µg/mL), pseudovirus neutralization [24] was 0.028 µg/mL, the IC50 (pseudovirus neutralization) [7] was > 50 µg/mL and the IC50 [25] was > 50 µg/mL. It also gave an IC50 [8] of 2.52 µg/mL, an IC50 (neutralization) [26] of 1.32 µg/mL and an IC50 [9] of 0.065 µg/mL. The IC50 [27] was 0.032 µg/mL, the IC50 [28] was 0.258 µg/mL and the IC50 [10] was 0.043 µg/mL. For the same substance, the IC50 (pseudovirus neutralization) [29] was 0.031 µg/mL, the IC50 (pseudovirus neutralization) [30] was 0.02 µg/mL and the IC50 [31] was > 50 µg/mL. It also gave an IC50 [11] of 0.014 µg/mL, an IC50 (pseudovirus neutralization) [32] of 0.145 µg/mL and an IC50 (pseudovirus neutralization) [33] of 0.072 µg/mL. It also gave an IC50 (pseudovirus neutralization) [12] of 0.14 µg/mL, an IC50 [13] of 24.2 µg/mL and an IC50 (pseudovirus neutralization) [34] of 1.24 µg/mL. It also gave an IC50 (neutralization) [35] of 0.553 µg/mL, an IC50 [36] of 1.26 µg/mL and an IC50 (neutralization) [37] of 0.44 µg/mL. The IC50 (pseudovirus neutralization) [38] was > 50 µg/mL, the IC50 (pseudovirus neutralization) [39] was > 50 µg/mL and the IC50 [40] was 0.048 µg/mL. It also gave an IC50 (µg/mL), pseudovirus neutralization [14] of 0.303 µg/mL, an IC50 (pseudovirus neutralization) [41] of 0.179 µg/mL and an IC50 (pseudovirus neutralization) [42] of 2.38 µg/mL. The IC50 (µg/mL), pseudovirus neutralization [43] was 0.112 µg/mL, the IC50 (µg/mL), pseudovirus neutralization [15] was > 50 µg/mL and the IC50 (µg/mL), pseudovirus neutralization [16] was 0.045 µg/mL. It also gave an IC50 (neutralization) [17] of 22.4 µg/mL, an IC50 [44] of 1.61 µg/mL and an IC50 [18] of 0.027 µg/mL. The IC50 (pseudovirus neutralization) [45] was > 50 µg/mL, the IC50 [46] was 0.168 µg/mL and the IC50 (pseudovirus neutralization) [19] was 5.99 µg/mL. For the same substance, the IC50 [47] was 1.23 µg/mL, the IC50 [20] was 0.083 µg/mL and the IC50 (pseudovirus neutralization) [21] was 1.51 µg/mL.

In the case of VRC01 (antibody), the IC50 [22] was 0.29 µg/mL, the IC50 (pseudovirus neutralization) [3] was 0.075 µg/mL and the IC50 [4] was 0.164 µg/mL. The IC50 (neutralization) [5] was 0.346 µg/mL, the IC50 [6] was 2.36 µg/mL and the IC50 [23] was 0.421 µg/mL. For the same substance, the IC50 [24] was 0.1 µg/mL, the IC50 (pseudovirus neutralization) [7] was > 50 µg/mL and the IC50 [25] was > 50 µg/mL. It also gave an IC50 [8] of 0.377 µg/mL, an IC50 (neutralization) [26] of 0.644 µg/mL and an IC50 [9] of 0.124 µg/mL. The IC50 [27] was 0.034 µg/mL, the IC50 [28] was 0.1 µg/mL and the IC50 [10] was 0.073 µg/mL. For the same substance, the IC50 (pseudovirus neutralization) [29] was 0.039 µg/mL, the IC50 (pseudovirus neutralization) [30] was 0.056 µg/mL and the IC50 [31] was > 50 µg/mL. It also gave an IC50 [11] of 0.037 µg/mL, an IC50 (pseudovirus neutralization) [32] of 0.245 µg/mL and an IC50 (pseudovirus neutralization) [33] of 0.055 µg/mL. It also gave an IC50 [13] of 1.81 µg/mL, an IC50 (pseudovirus neutralization) [34] of 0.515 µg/mL and an IC50 (neutralization) [35] of 1.16 µg/mL. For the same substance, the IC50 [36] was 0.424 µg/mL, the IC50 (neutralization) [37] was 0.576 µg/mL and the IC50 (pseudovirus neutralization) [38] was > 50 µg/mL. For the same substance, the IC50 (pseudovirus neutralization) [39] was > 50 µg/mL, the IC50 [40] was 0.066 µg/mL and the IC50 [14] was 0.707 µg/mL. It also gave an IC50 (pseudovirus neutralization) [41] of 0.387 µg/mL, an IC50 (pseudovirus neutralization) [42] of 1.08 µg/mL and an IC50 [43] of 0.396 µg/mL. For the same substance, the IC50 [15] was 2.46 µg/mL, the IC50 [16] was 0.108 µg/mL and the IC50 (neutralization) [17] was 12.7 µg/mL. The IC50 [44] was 0.292 µg/mL, the IC50 [18] was 0.06 µg/mL and the IC50 (pseudovirus neutralization) [45] was 33.4 µg/mL. For the same substance, the IC50 [46] was 0.553 µg/mL, the IC50 (pseudovirus neutralization) [19] was 1.89 µg/mL and the IC50 [47] was 0.657 µg/mL. For the same substance, the IC50 [20] was 0.055 µg/mL and the IC50 (pseudovirus neutralization) [21] was 1.72 µg/mL.
